# According to the RNAGym collection of RNA variant scans (doi:10.1073/pnas.2313332121):
# B1: TPR t1 (parent)
# chain: GACCAAUCUGCCCUCAGAGCUCGAGAACAUCUUCGGAUGCAGAGGAGGCAGGCUUCGGUGGCGCGAUAGCGCCAACGUCCUCAACCUCCAAUGCAUCCCACCACAUGAUGAUGCCUGAAGAGCCUUGGUUUUUUG
# Variants of: B1
# Experiment: polymerase ribozyme fitness, log enrichment relative to wild type (log ratio); higher = more active; in vitro selection for triplet polymerase activity
# Method in brief: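 To select mutant libraries of each subunit of a heterodimeric triplet polymerase ribozyme, built by PCR and transcribed, each was annealed with a biotinylated primer, partner subunit and triplets, then incubated frozen at −7 °C. Extended constructs were gel-excised, captured on streptavidin beads and amplified by RT-PCR, in one round carried out in triplicate. Illumina sequencing of input and output libraries kept genotypes with ≥10 input reads and ≥1 read per output. Fitness is the base-2 logarithm of genotype enrichment relative to wild-type enrichment, from inverse-variance-weighted replicate averages.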
row,Variant,polymerase ribozyme fitness (log ratio)
1,GACCUUUCUGCCCUCAGAGUUCGAGAACAUCUUCGGAUGCAGAGGAGGCAGGCUUCGGUGGCGCGAUAACGCCAACGUCCACAACCUCCAAUGCAUCCCACCACAUGAUGAUACCUGAAGAGCCUUGGUUUUUUG [A5U A6U C20U G69A U81A G113A],-2.02
2,GACCAAUAUGCGCUUAGUGCUCGAGAACAUCUUCGGAUGCAGAGGAGGCAGGCUUCGGUGGCGCGAUAGUGCCAACGUCCUCAACCUCCAAUGCAUCCCACCACAUGAUUAUGCCUGAAGAGCCGUGGUUUUUUG [C8A C12G C15U A18U C70U G110U U125G],-5.75
3,GACCUAUCGGCCCUCAGAGCUCGAGAACAUCUUCGGAUGCAGAGGAGACAGGCUUCGGUGGCGCGAUAGCGCCAACGACCUCAACCUCCAAUGCAUCCCACCACAUGAUGAUGCCUGAAGAGCCUUGGUUUUUUG [A5U U9G G48A U78A],-0.963
4,GACCAAUCUGCUCUCAGAGCUCGAGAACAUCUUCGGAUGCAGAGGAGGCAGUGUUCGGUGCCGCGAUAGCGCCAACGUCCUCAACCUCCAAUGCAUCCCACCACAUGAUGAUGCCUGAAGAGCCUUGGUUUUUUG [C12U G52U C53G G61C],-4.41
5,GACCAAUCUGCCCUCAGAGCUCGAGAACAUCCUCGGAUGCAGAGGAGGCAGGCUUCGGUGGCGCGAUAGCGCCAACGUCCUCAACCUCCAAAGCACCCCACCACAUGAUGAUGCCUGAAGAGCCUUGGUUUAUUG [U32C U92A U96C U132A],-2.97
6,GACCAAUCUGCCCUCAGAGCUCGAGAACAUCUUCGGAUGCAGAGGAGGCAGGCUUCGGUGGCGCGAUAGCGCCAACGUACUCAACCUCCAAUGCAUCCCACCACAUGAUGAUGCCUUAAGAGCCUUGGUUUUUUG [C79A G117U],-3.95
7,GACCAAACUGCCCUCAGAGCUCGAGAACAUCUUCGGAUGCAGAGGAGGCAGGCUUCGGUGGCGCGAUAGCGCCAACGUCCUCACCCUCCAAUGCAUCCCACCACAUGAUGAUGCCCGAAGAGCCUUGGUUUUUUG [U7A A84C U116C],-0.218
8,GAUCAAUCUGCCCUCAGAGCUCGAGAACAUCUUCGGAUGCAGAGGAGGCAGGCUUCGGUGGCGCGAUAGCGCCAACGUCCUCAACCUCCAAUGCAUCCCACCACAUGAUGAUGCCUGAAGAGCCUUGGUCUUUUG [C3U U130C],0.391
9,GACCAAUCUGCCCUCUGAGCUCGAGAACAUCUUCGGAUGCAGAGGAGGCAGCCUUCGGUGGCGCGAUAGCUCCAACGUCCUCAACCUCCAAUGCAUCCCACCACAUGAUGAUGCCUCGAGAGCCUAGGUUUUUUG [A16U G52C G71U G117C A118G U126A],-6.61
10,GAUCAAUCUGCCCUCAGAGCUCGAGAUCAUCUUCGGAUGCAGAGGAGGCAGGCUUCGGUGGCGCGAUAGCGCCAACGUCCUCAACCUCCAAUGCAUCCCACCACAUGAUGAUGCCUGAAGAGCCUUGGUUUUUUG [C3U A27U],-4.17
11,GACCAAUCUGCCCUAAGAGCUCGAGAACAUCUUCGGAUGAAGAGGAGGCAGGCUUCGGUGGCGCGAUAGAGCCAACGUCCUCAACCUCCAAUGCAUUCCACCACAUGAUGAUGCCUGAAUAGCCUUGGUUUUUUG [C15A C40A C70A C97U G120U],-5.14
12,GACCAAUCUGCCCUCAGAGCUCGAGAACAUCUUCGGAUGCAGAGGAGGCAGGCUUCGGUGGCGCGAUAGCUCCAACGUCCUCAACCUCCAAUGCAUCCCACCAAAUGAUGAUGCCUGAAGAGCCUCGGUUUUUUG [G71U C104A U126C],-3.21
13,GACCAAUCUGCCCUCAGAGCUCGAGAACAUCUUCGGAUGCAGAGGAGGCAGGCUUCGGUGGAGCGAUAGCGCCAGCGUCCUCAACCUCCAAUGCAUCCCACCACAUGAUGAUGCCUGAAGAGCCUUGGUUUUUUG [C62A A75G],-1.22
14,GACCAAGCUGCCCUCAGAGCUCGAGAACAUCUUCGGAUGCAGAGGAGGCAGGCUUCAGUGGCGCGAUAGCGCCAACGUCCUCAACCUCCAAUGAAUCCUACCACAUGAUGAUGCCUGAAGCGCCUUGGUUUUUUG [U7G G57A C94A C99U A121C],-5.61
15,GACCAAUCUGCCCUCAGAGCUCGAGAACAUCUUCGGAUGCAGAGGAGGCAGGCGUCGGUGGCGCGAUAGCGCCAACGUCCUCAACCUCCAAUGCAUCCCACCACAUGAUGAUGCCUGAAGGGCCUUGGUUUUUUG [U54G A121G],1.62
16,GACCAAUUUGCCCUCAGAGCUCGAGAACAUCUUCGCAUGCAGAGUAGGCAGGCUUCGGUGGCGUGAUAGCGCCAACGUCCUCAACCUCCAAUGCAUCCCAACACAUGAUGAUGCCUGAAGAGCCUUGGUUUUUUG [C8U G36C G45U C64U C101A],-1.02
17,GACCAAUCUGACCUCAGAGCUCGAGAACAUCUUCGGAUGCAGAGGAGGCAGACUUCGGUGGCGCGAUAGCGCCAACGUCCUCAACCUCCAAUGCAUCCCACCACAUGAUGAUGCCUGAAGAGCCUUGGUUUUUUG [C11A G52A],-1.58
18,GACCAAUCUGCCCUCAGAGCUCGAGAACAUCUUCGGAUGCAGAGGAGGCAGGCUUCGGUGGCGCGAUAGUGCCAACGUCCUCAACCUCCAAUGCAUUCCACCACAUGAUGAUGCCUGAAGAGCCUUGGUUUUUUG [C70U C97U],-0.226
19,GACCAAUCUGCCGUCAGAGCUCGAGAACAUCUUCGGAUGCAGAGGAUGCAGGCUUCGGUGGCGCGAUAGCGCUAACGUCCUCAACCUCCAAUGCAUCCCACCACAUGAUGAUGACUGAAGAGCCUUGGUUUUUUG [C13G G47U C73U C114A],-4.1
20,GACCAAUCUGCCCUCAGAGCUCGAGAACAUCUUCGGAUGCAGAGGAGGCAGGCUUCGGUUGCGCGAUAGCGCCAACGUCCUCAACCUCCAAUUCAUCCCACCACAUGAUGAUGCCUGAAGAGCCUUGGUUUUUUG [G60U G93U],-1.03
21,GACCAAUCUGCCCUCAGAGCUCGAGAACAUCUUCCGAUGCAGAGGAGGAAGGCUUCGGUGGCGCGAUAGCGCCAACGUCCUCAACCUCCAAUGCAUCCCACCACAUGAUGAGGCCUGAAGAGCCUUGGUUUUUUG [G35C C49A U112G],-6.16
